Results from patent US20220153819A1 (Regeneron, published 2022).

Tests used:
[1] = molecular target: T1, Influenza A group 1 HA Foldon.6×His (Influenza A virus (H1N1)); assay: SPR (Biacore 8k), 37C; HA Foldon-6xHis captured via anti-His, bsAb injected
T1 construct: also called HA-6×His; HA.6×His

[2] = molecular target: T1, Influenza A group 1 HA Foldon.6×His; assay: SPR (Biacore 8k), 25C; HA Foldon-6xHis captured via anti-His, bsAb injected

B1: REGN6093, anti-Influenza HA x anti-C1q bispecific antibody (bispecific antibody, V domains shown)
VH 1: QVHLVQSGPEVKKPGSSVKVSCKASGVTFISHAISWVRQAPGQGLEWVGGIIAIFGTTNYAQKFQGRVTVTTDKSTNTVYMELSRLRSEDTAIYYCARGETYYEGNFDFWGQGTLVTVSS
VH 2: EVQLVESGGGVVQPGGSLRLSCAASGFSLDDYAMHWVRQTPGKGLEWVSLISGDGSRTSYADSVKGRFTISRDNSKNSLYLKMNSLRTEDTALYYCTKDPHNSNWFDPWGQGTLVTVSS
VL: not shown
notes: also called FluA group 1 x C1q bispecific; anti-HA x anti-C1q
[1]
  Kd: 519 pM
  koff: 5.15e-05 s⁻¹
  kon: 99400 M⁻¹ s⁻¹
  t½: 3.74 h
[2]
  Kd: 1110 pM
  koff: 0.000175 s⁻¹
  kon: 158000 M⁻¹ s⁻¹
  t1/2: 1.1 h
